Assay: soluble on expression in E. coli; label from the status in PepcDB or PDB records

Sequence | soluble on expression in E. coli
MPELSETAERSQSNTPLAMIMDDSDIDYQRFQELVASTDSLAILCHDNPDPDTLASALALEAIAKEWEVPTVDIVYGGTVTHQQNRAMINVLDIELTPIDQVSLSDYGLVAFVDHGIPGQNNSAVEEMTPDIIIDHHPTDGLQGQFVDLRPAVGATATLLTRYLEIFSIELEERLATALLFALHRETLDFNRETTSTEHAAACVLHPHADHNIIEELTNSVFTPETISGIGDAIANREVRGSCLVSSLGWIRERDAVPQAADYLLQLEGVSTTIVYGIVDDNVHLSGRTSNSQLHIGNVMEETFDQVGSAGGHHDMAGGQVPLGFIGSVDDGDDVAIDLINQSMMARLFGALEGWTET | not soluble
MGSSHHHHHHGKTIFVIVPTNEEQVAFLEALAKQDELNFDWQNPPTEPGQPVVILIPSDMVEWFLEMLKAKGIPFTVYVEEGGSENLYFQGGGGGGRPIVANRARHPALIVDIPFAALAWQCVQFLAVVVAHSLMRQMMLASVIRFTAVFLGIRRCRGAFVVAPLFVLQPLLQHLQQLITHPLTCLQGGIQWQLHALVEHLVHLQHLPSPRVQLSHVTKKRRAPVRKVVCGRIIHVHRTLLLLKQLRLLGVPGTQRAESSEHGGEPLTAVLVQLDKSIASRSGDNGDGGGRCR | not soluble
MAQEFVNCKIQPGKVVVFIKPTCPYCRRAQEILSQLPIKQGLLEFVDITATNHTNEIQDYLQQLTGARTVPRVFIGKDCIGGCSDLVSLQQSGELLTRLKQIGALQ | soluble
MVSAKDFSGAELYTLEEVQYGKFEARMKMAAASGTVSSMFLYQNGSEIADGRPWVEVDIEVLGKNPGSFQSNIITGKAGAQKTSEKHHAVSPAADQAFHTYGLEWTPNYVRWTVDGQEVRKTEGGQVSNLTGTQGLRFNLWSSESAAWVGQFDESKLPLFQFINWVKVYKYTPGQGEGGSDFTLDWTDNFDTFDGSRWGKGDWTFDGNRVDLTDKNIYSRDGMLILALTRKGQESFNGQVPRD | soluble
MNNQTILIIGAAGNNGMATIESLVSKQPKDTIVAAVRSTDKATLLKKKFPSIKTVIIDLDKPETLTAAYEGVTKVFMIPGNVEEREQHAKNAIDAAVQAGTVKQFLFYSVVGAEYEAILFAQQFRAGEKYLEQSGLNWTHLRTIFFQDNFFGWADGVKQGGLYFGIREGSFAPLNVADIGEMAANILTTSGHEHKAYNITGSELLSGEEMAKVFTDVTGKTVAYISPTKQQTLDSLLSTGWPQWQAEGMLELFEVFATNQAAVVSPDGEQLLGRPLTTLKDFIASNKAAFV | not soluble
MKDDPKVHLEAKELWDQFHKRGTEMVITKSGRRMFPPFKVRCSGLDKKAKYILLMDIIAADDCRYKFHNSRWMVAGKADPEMPKRMYIHPDSPATGEQWMSKVVTFHKLKLTNNISDKHGFTILNSMHKYQPRFHIVRANDILKLPYSTFRTYLFPETEFIAVTAYQNDKITQLKIDNNPFAKGFRDTGNGRR | soluble
MPSSIICDVSHEGEASGGPSPSSRISNGFSHTVCDLHHNFPIVKNRRKYHNSISTQSSSSTTTSLERISTSTCTSTSSSASDAIISRAEKDVQTFLVSDESTTGDHEEEEEDDEDGDDESDHNDYDYEDDGERSEHDHEQTDNDDDEDEIEPFVSSWCFAMGTQRSVMSSVGEKAPKSNVKSMEDWELDVVERAHRESHLAELYADLSWRFYTHPPTSFCLARVFLRHGLTGNEGVSSWKLPRKANRRNSSCSSISSVSESSSPSALDESTLTKILPTDNFRGGRGFASPSPPTSLLSEPLSRMDVLSEKIWDYHNKVSQTDEMLQRKLHLRDMLYTAISPVFPLSGLYVVGSSLNGFGNNSSDMDLCLMITNKDLDQKNDAVVVLNLILSTLQYEKFVESQKLILAKVPILRINFAAPFDDITVDLNANNSVAIRNTHLLCYYSSYDWRVRPLVSVVKEWAKRKGINDANKSSFTSYSLVLMVIHFLQCGPTKVLPNLQQSYPNRFSNKVDVRTLNVTMALEEVADDIDQSLSEKTTLGELLIGFLDYYANEFNYDRDAISIRQGRRVERAALAVRPKIHSNSEGDKETPPPSSSASTSSIHNGGTPGIPMHHSISNPHFWRSQWRCVCIEEPFTNSNTAHSIYDEMVFEAIKKAFREAHGELQHNHDLDKLMECEPIKASTTNTGAAVFAATYEGERPLAQQPNTIACASLRVLNSIPVSSGPGHYHYQQQSNQNLSRPQRPGSNQGYQMNNNRGFNGNNQQQHQNRRSFNNQSSSNPGNGSTGPRSSRSNENVRDSSRQQNSQKGSSGVSVSKENVASTTGVPVDKKQQNSNRKDDGNRTKRSPMVQSPEPAKTKSEKTPMASSNVSQ | not soluble
MQSRKRLDAELVRRKIARSREQAVEMIKDGRVHVQGFVAKKPATQVTPEASIRVEDAGLDDWASRGAHKLLGALAEFKSKGLNVSGRRALDAGASTGGFTDVLLRESASEVVAVDVGYGQLIWRLQNDARVKVLDRTNIRNLSLEITDGPCDLMVGDLSFISLKLTLPAIAACMSDGADLLPMVKPQFEVGKERLGHGGVVRDPKLRAEVTEDIALFAQQLGLSFVDVVASPLPGPSGNVEYFLWLKKDSGRSAKGLHEIHEKVAEAVQKGPQ | not soluble
YVTNDLANSMKDRGTMLADSLRVDFAIINDPSKIPVSGTGPYTYTFYVKNIGKDSIAFSSNSIQVFIDGNIIPPANLTFTDVNGNSISSLDPGEVGAIQVTLGNALDPGYHRIQVVLENGKERVLIFKI | not soluble
MKIKILVDEYNTQKEQAKKVRKATSLYFRIHPSIMASKTLRVLFLGPKGTYSHQAALQQFQSTSDVEYLPAASIPQCFNQLENDTSIDYSVVPLENSTNGQVVFSYDLLRDRMIKKALSLPAPADTNRITPDIEVIAEQYVPITHCLISPIQLPNGIASLGNFEEVIIHSHPQVWGQVECYLRSMAEKFPQVTFIRLDCSSTSESVNQCIRSSTADCDNILHLAIASETAAQLHKAYIIEHSINDKLGNTTRFLVLKRRENAGDNEVEDTGLLRVNLLTFTTRQDDPGSLVDVLNILKIHSLNMCSINSRPFHLDEHDRNWRYLFFIEYYTEKNTPKNKEKFYEDISDKSKQWCLWGTFPRNERYYHK | not soluble
MGSDKIHHHHHHCDLERYPLTDLSEETFWNSESNAELALTSLYRGSLTDGVEYNPSDWWSYHGMIMMEHLSDNAFDRRGENNPFFKISSGNLTADNAFIKRYWETSYKRIGYCNRFLVGIQNSSESEKKTRMIAEARFLRATQYFYLASYFKNVPLVENVLTGEEANNVTKTSQADILKWCVTEFTAAAADLPRFSAIPAGEAGRACKQAALAFLGRTCMLQKDWKSGAKAFHDIMELGDNAINANYQELFYPSTGTSNKENIFYIQYLENYLGTGLPQHALSAKDGGWSLVNPAADLYESYEFKDGTPFSYDDPRYDPSNLGKDRDPRLDYTIYYNGAIFMGTEYKMSPDYSAAKKEKLDYTSEASRTGFMMRKYFEESTPINDVQSANGLTPVIRYAEVLLGYLECLVEDNQTITQGILDETINAVRGRASVNMPPVTEVTPAKLREIVRHERRIELAMEGIRYWDIMRWGIAHEVLSQKIWGAPYPGSTQYATTTKEVDPTGNYRWYVGKRAFRNPTDYTWPIPQSEQNINPNLRD | not soluble
MGSDKIHHHHHHMIEFAAITSVISKYAPQASQLIIKQAQKNEAVINILHELKLNPTQISDDIDTVYIYALIRYGVFKHEAILNLFREKEIKGCFWDAYSSNTPFKFVENAKKLLNQNSELKMQLINAKINFLAEIEEFGEAFIAVAKQTKSSKYQPYPDWNLDVYSKEFKALIFEKTRLFCGRDFVFKAIQKFFTTQAKGYFSIVGDAGMGKSAIAAKYVLAYKFPCYFNIFAEGRNKPEKFLASIRQQLIKRYSLQNADNTDLRTLLQKASEELKGQKLVIVVDALDEVEQEGNGNLLDLPQNLPNGVYFLLTRRLYNQETKRLTLSPDTPVYELDLTQGDYTALSQEDVKEYIELYLNNDSDLKNWINERHISEDSFTQEIAVKSENNFIYLRYLLPGISEGKYNDLNLKGLPQGLQDYYTTHWNRMGMDKESNEKKVKILYILVERGEPISINMITEILDEEEYEVKSVLNEWVEYVTPKVNVDEHKTYYSIYHRSFLEFLKSQDKLGKGRKLFREVNKSMANYMLKEMA | not soluble
MSLVLGNAWLVLADRVIEHGWVAIADGVIAEVGEGDAPNGAKDMHGDLVMPGLVELHTDHLEAHYTPRPKVQWNPVAAVVSYDGQLATCGITTVLDSLRVWREEGAEEVDGQAIVLAGAISTARDAQLLRADHFLHLRCEIPMPNVVAEAKELIDRPDIRLMSLMDHTPGQRQFRDEEKLRDYYRGKGAGMTDAELDVMFARRVYCKENYADANMRAIVELAHRYEIPLASHDDTTPENVADAIRDRVAVAEFPTTLEAARELHQAGIDILMGAPNVVRGGSHSGNIAAIDLAHEGLLDILSSDYIPSSLLIAALQLPMRAPGIDLAAAIRTVTKAPAEAVGLNDRGEISKGKRADLIRVHVAHDVPAVRSVWREGQRVAEGHHHHHH | soluble
MPKFVVIELNDDAATIDLLSYCVKKNFERVSLLTRLEDHPYLRDDQDVVQDDTQSQGTDGMLLQLNDEERQRLMKMISTPGPQTLSMERIQMAPGQGQHILQQHQIPSTSSYTNNSFIYIKSDPQYKDEPQQQSNQFDATVNSVAHGQAGLSTLEMFACNGSPNGGDVLRRKTPSRKAEDSIKATCKVCGHDVMYSPQRTWNLMRHVWIMHQSSKPNQCSICGYSHIKPYVRKHIESQHKHDSNATIIDLKSPELEAEWSQLLDQCFGVTYRKWKHHKEDTQHTGGLLFDDDELRG | soluble
MNNFTMPDKKYFLFAARRADDQLILVVPKSGERFLMNEELLRRDYNVQLGDFLHCKINRSKELYDISKTKHTANISTVVNGDEAIIENLRADLVSSDELLLFQSQLFDDIRCWQSDQPIGRYYIKMRLFPTSREMSGRMIHYEVVKITGSVKSIELNKQQGNFQQNIDSGYSAASEKTESSAGFSQSPAAGLPSPQNLIYPAGSKKIVSQQGTQVVGPGCPLVKKEETPANKIMGTGFPKSTKREENVFGSELLQQKKNNEKPGSTVGKGFTTSQTIGEKQRAVVTSIDAKRPGTYYLWNLDSKTEGLLKSTTPLELGHQFAGIFVNQENGKCFCKEYIGEIERVLEGKVNDTNKVNLTVKLLDFQPAGVNRRRASGTAKYIGDVLEGNTEDTKLTIECIGKKVNIERRKFGEKDFVWMVTEIRNCSQYDQKIF | not soluble
MSLTATAPCPYACGLCSLHENHSALVNIVVTNRCDLSCFYCFFYAERAGYIYEPSIEQIKFMVRQVARQRQGSDVHVNIQITGGEPTVREDLVDVVKAIREAGAHYIQLNTNGINVARRYLDNPPGAIDYVRSLREAGVSVVYMSFDGVTPKVNWKNHYEAPFALKAFQEGGLDNVVLVPTVIRTINDHEVGDIIRFAGKHIDVVRGVNFQPVSLTGMMRKHERERMRITIPDVIKRIEEQTDGQIPMDAWYPVPVVAKFVKAIDALTGKLYDTLSNHPACGSATYVFALERDRYGVPRRFLPITEVIDVEGFIEFLDEERIKLEHNSGRLSRLKVAAEIVWRARRFVDFDREGHHHHHH | not soluble
GPGSMDYNLEYSEEQREYLERVGMREYLETFVAEVVRQKPNDIYAFLHDWASAHCQKQTKMTPTEASIKIQCAQRQNLAIKEMRSRQRKVNELLEQEETERVGKVEMEG | soluble
